Assay results taken from patent US20210253725A1 (BIONTECH, published 2021).
Where a chain is given by its changes, count along the chain named. In names and notes the source's numbering stands.

How the values were obtained:
[1] = biological target: T1, CD134 expressed on the cell surface of HT1080_OX40 cells (human, UniProt P43489 29-277); test: cell-based or functional assay
T1 sequence (looked up): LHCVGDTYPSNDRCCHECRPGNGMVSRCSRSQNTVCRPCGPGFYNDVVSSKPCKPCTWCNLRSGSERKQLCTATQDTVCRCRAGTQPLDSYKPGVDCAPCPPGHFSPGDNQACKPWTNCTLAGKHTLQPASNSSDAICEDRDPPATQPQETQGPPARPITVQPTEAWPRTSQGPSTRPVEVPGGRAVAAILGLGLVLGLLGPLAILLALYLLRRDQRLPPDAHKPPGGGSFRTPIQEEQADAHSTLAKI

[2] = biological target: T1, CD134 expressed on the cell surface of …; test: HT1080_OX40 cells, imaging
[3] = biological target: T2, CD134 protein (His-tagged, Sino Biological Inc. 10481-H08H) (human, UniProt P43489 29-216); test: ELISA, coated His-tagged CD134
T2 construct: bought protein coated on ELISA plates; also called OX40; TNFRSF4; not shown: His tag
T2 sequence (looked up): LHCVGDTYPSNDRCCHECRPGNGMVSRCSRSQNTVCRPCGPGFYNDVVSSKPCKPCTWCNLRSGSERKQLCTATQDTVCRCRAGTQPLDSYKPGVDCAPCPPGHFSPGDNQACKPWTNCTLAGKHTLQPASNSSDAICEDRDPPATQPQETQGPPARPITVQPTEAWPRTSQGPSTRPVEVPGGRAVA
Note: test concentration or dose not given here.

B1: P018.S.11.A.G02 (antibody, V domains shown)
VH: QSVEESGGRLVTPGTPLTLTCTVSGFSLSGYDMSWVRQAPGKGLEWIGYIYGGNTYYANWAKGRFTISKTSTTVDLKMTSPTTEDTATYFCTRVGAGYSGVWAYFNLWGPGTLVTVSS
VL: AQVLTQTPSSVSAAVGGTVTINCQSSQSVDSDNYLAWYQQKPGQPPKLLIYDTSKLASGVPSRFTGSGSGTQFTLTISGVQSDDAATYYCQGTYYNAGWYFAFGGGTEVVVK
notes: V regions on human Ig constant parts; also called AB134_42
[1]
  Functional assay Cross-linked by F(ab′)2 fragment IL-8: 2.06 abs. corr.
  Functional assay IL-8: 0.27 abs. corr.
[2]
  Cellular binding assay [RFU]: 357 RFU
[3]
  ELISA [abs. corr.]: 1.07 abs. corr.

B2: P018.S.12.A.B01 (antibody, V domains shown)
VH: QEQLVESGGGLVQPEGSLTLTCKASGFDFSYNSMCWVRQAPGKGLEWITCIYNGDGSTWYASWAKGRFTISKTSSTTVTLQMTSLTAADTATYFCTRDFGLWGPGTLVTVSS
VL: ALVMTQTPSSTSEPVGGTVTINCQASESVANHKQLSWYQQKPGQPPKVLIYYASTLASGVPSRFKGSGSGTQFTLTISDVVSDDAATYYCSGYKSISTDGNAFGGGTEVVVK
notes: V regions on human Ig constant parts; also called AB134_56
[1]
  Functional assay Cross-linked by F(ab′)2 fragment IL-8: 2.11 abs. corr.
  Functional assay IL-8: 0.396 abs. corr.
[2]
  Cellular binding assay [RFU]: 607 RFU
[3]
  ELISA [abs. corr.]: 2.34 abs. corr.

B3: P018.S.11.A.F04 (antibody, V domains shown)
VH: QSVEESGGRLVTPGTPLTLTCTVSGFSLSRYTMGWVRQAPGKGLEYIGIIYGDDNTYYASWAKGRLTISKTSSTTVDLKITSPTTEDTATYFCASCAPIYYNTFSFNLWGQGTLVTVSA
VL: AYDMTQTPASVEVAVGGTVTIKCQASQTIGGSLSWYQQKPGQPPKLLIYAAATLASGVPSRFKGSGSGTQFTLTISGVESDDAATYYCQQHYTGDNVNNPFGGGTEVVVK
notes: V regions on human Ig constant parts; also called AB134_40
[1]
  Functional assay Cross-linked by F(ab′)2 fragment IL-8: 2.11 abs. corr.
  Functional assay IL-8: 0.568 abs. corr.
[2]
  Cellular binding assay [RFU]: 486 RFU
[3]
  ELISA [abs. corr.]: 2.25 abs. corr.

B4: P018.S.12.A.G03 (antibody, V domains shown)
VH: QSLEESGGRLVTPGGSLTLTCTLSGIDLSSNAISWVRQAPGKGLEWIGIIFPGDNIYYATWAKGRFTISKTSTTVDLKMTSLRTADTATYFCARYHADDSVDLWGPGTLVTVSS
VL: AYDMTQTPASVSEPVGGTVTIKCQASQSINGWLSWYQQKPGQRPRLLIYRASDLAPGVSSRFKGSGSGTQFTLTISDVESADAATYYCHLGDIYSNIDYVFGGGTEVVVK
notes: V regions on human Ig constant parts; also called AB134_85
[1]
  Functional assay Cross-linked by F(ab′)2 fragment IL-8: 2.1 abs. corr.
  Functional assay IL-8: 0.209 abs. corr.
[2]
  Cellular binding assay [RFU]: 452 RFU
[3]
  ELISA [abs. corr.]: 2.52 abs. corr.

B5: P018.S.12.A.H05 (antibody, V domains shown)
VH: QSLEESGGDLVKPGASLTLTCTASGFSFDIDYYMCWVRQAPGKGLEWIACIYAGSSGSTYYASWAKGRFTISKTSSTTVTLQMPSLTAADTATYFCARHYAGYAGDAYATDYYFNLWGRGTLVTVSS
VL: DIVMTQTPSSVSATVGDTVTINCQASQSVSNFLAWYQQKPGQPPKPLIYGASNLESGVPSRFRGSGSGTEFTLTISGMKAEDAATYYCQSGYYSATFGAGTKVEIK
notes: V regions on human Ig constant parts; also called AB134_91
[1]
  Functional assay Cross-linked by F(ab′)2 fragment IL-8: 2.19 abs. corr.
  Functional assay IL-8: 0.348 abs. corr.
[2]
  Cellular binding assay [RFU]: 527 RFU
[3]
  ELISA [abs. corr.]: 2.37 abs. corr.

B6: P018.S.12.A.C03 (antibody, V domains shown)
VH: QEQLKESGGDLVTPGTPLTLTCTVSGFSLSSYAMAWVRQAPGKGLEYIGFIDTDGSAYYASWAKGRFTISRTSTTVDLKITSPTTEDTATYFCAGDSYGYAGFVYFNLWGPGTLVTVSS
VL: DVVMTQTPASVSEPVGGTVTIKCQASQNIYSSLAWYQQKPGQPPKLLIYDASDLASGVPSRFKGSGSGTQFTLTISDLESDDAATYYCQCSYYGVDYVGGFGGGTEVVVK
notes: V regions on human Ig constant parts; also called AB134_63
[1]
  Functional assay Cross-linked by F(ab′)2 fragment IL-8: 2.11 abs. corr.
  Functional assay IL-8: 0.238 abs. corr.
[2]
  Cellular binding assay [RFU]: 483 RFU
[3]
  ELISA [abs. corr.]: 1.96 abs. corr.

B7: P018.S.04.A.B04 (antibody, V domains shown)
VH: QSLEESGGRLVTPGTPLTLTCTASGIDLNNYAMSWVRQAPGKGLEWIGIISGAGYTYYTTWAKGRFTISKTSTTVDLKITSPTTEDTATYFCARIYDSYGYAYVPYYDMDLWGPGTLVTVSS
VL: AAVLTQTPSPVSTAVGGTVTINCQSSQSVFMNNYLSWYQQKPGQPPKLLIYDASTLASRVPDRFSGSGSGTQFTLTISGVQSDDAAAYYCLGGYDDDSATTFGGGTEVVVE
notes: V regions on human Ig constant parts; also called AB134_6
[1]
  Functional assay Cross-linked by F(ab′)2 fragment IL-8: 2.11 abs. corr.
  Functional assay IL-8: 1.99 abs. corr.
[2]
  Cellular binding assay [RFU]: 331 RFU
[3]
  ELISA [abs. corr.]: 3.21 abs. corr.

B8: P018.S.12.A.E05 (antibody, V domains shown)
VH: QSVEESGGRLVTPGGSLTLTCTASGFDLSSYATSWVRQAPGKGLEWIGIIYGSGSTTYASWVKGQFTISKSSSTTVDLKMTSLTTEDTATYFCARGLVASTDNYNLWGPGTLVTVSS
VL: AAVLTQTPSPVSVAVGGTVTINCQASQSVYNNNYLAWFQQKPGQPPKLLIYLASILASGVPSRFKGSGSGTQFTLTINGVQSDDAATYYCLGDVGGGERVFGGGTEVVVK
notes: V regions on human Ig constant parts; also called AB134_76
[1]
  Functional assay Cross-linked by F(ab′)2 fragment IL-8: 2.11 abs. corr.
  Functional assay IL-8: 0.132 abs. corr.
[2]
  Cellular binding assay [RFU]: 523 RFU
[3]
  ELISA [abs. corr.]: 1.93 abs. corr.

B9: P018.S.11.A.D04 (antibody, V domains shown)
VH: QSVEESGGRLVTPGTPLTLTCTVSGFSLNSYDMSWVRQAPGKGLEWIGFISASGSIYFASWAKGRFTISKTSTTVDLKITSPTTEDTATYFCASDSYGWAYVYYFNLWGPGTLVTVSS
VL: AVVLTQTPASVSPAVGGTVTINCRASEDIGSYLGWYQQKPGQPPKLLMHDASDLASGVPSRFSGSGSGTEFTLTISGVQSDDAATYYCQSAWYSSNTDKMAFGGGTEVVVK
notes: V regions on human Ig constant parts; also called AB134_31
[1]
  Functional assay Cross-linked by F(ab′)2 fragment IL-8: 2.04 abs. corr.
  Functional assay IL-8: 0.38 abs. corr.
[2]
  Cellular binding assay [RFU]: 530 RFU
[3]
  ELISA [abs. corr.]: 2.07 abs. corr.

B10: P018.S.12.A.G04 (antibody, V domains shown)
VH: B9 VH with S53I, G54D, S55N, I56T, F58Y
VL: B9 VL with P13A, A14T, M48I, N96D, T97S
notes: V regions on human Ig constant parts; also called AB134_86
[1]
  Functional assay Cross-linked by F(ab′)2 fragment IL-8: 1.99 abs. corr.
  Functional assay IL-8: 0.407 abs. corr.
[2]
  Cellular binding assay [RFU]: 534 RFU
[3]
  ELISA [abs. corr.]: 2.08 abs. corr.

B11: P018.S.12.A.C02 (antibody, V domains shown)
VH: QEQLVESGGGLVQPEGSLTLTCTASGFSFSNNAMCWVRQAPGKGLEWIACIYDGSSGSTYYATWAKGRFTISKTSSTTVTLQMTSLTAADTATYFCARAYGGYTVYDYAFNLWGPGTLVTVSS
VL: DVVMTQTPASVSEPVGGTVTIKCQASQSIGSDLAWYQQKPGQPPKLLIYYTTNLETGVSSRFKGSRSGTEYALTISDLESADAATYYCQYGVRSTYSFGGGTEVVVK
notes: V regions on human Ig constant parts; also called AB134_62
[1]
  Functional assay Cross-linked by F(ab′)2 fragment IL-8: 2.14 abs. corr.
  Functional assay IL-8: 0.936 abs. corr.
[2]
  Cellular binding assay [RFU]: 571 RFU
[3]
  ELISA [abs. corr.]: 2.05 abs. corr.

B12: P018.S.11.A.F05 (antibody, V domains shown)
VH: QSLEESGGRLVTPGTPLTLTCTVSGFSLSRYHMSWVRQAPGKGLEYIGYIHTDDTNWYASWAKGRFTISKTSTTVDLKITSPTTEDTATYFCARVSSVGGYYFDLWGQGTLVTVSS
VL: DVVMTQTPASVSEPVGGTVTIKCQASEDIYNLLAWYQQKPGQPPKLLIYAASTLASGVPSRFKGSGSGTQFTLTISDLESADAATYYCQNNYLISSYGVGFGGGTEVVVK
notes: V regions on human Ig constant parts; also called AB134_41
[1]
  Functional assay Cross-linked by F(ab′)2 fragment IL-8: 2.15 abs. corr.
  Functional assay IL-8: 0.33 abs. corr.
[2]
  Cellular binding assay [RFU]: 396 RFU
[3]
  ELISA [abs. corr.]: 1.67 abs. corr.

B13: P018.S.02.A.F01 (antibody, V domains shown)
VH: QSVEESGGRLVTPGTPLTLTCTVSGFSLSSYAMSWVRQAPGKGLEWIGIISSSGVTYYASWAKGRFTISKTSTTVDLRITGPTTEDTATYFCARDPGYSTGWDYFFRLWGQGTLVTVSS
VL: AIKMTQTPASVSAAVGGTVSINCQASEDIESYLAWYQQKPGQPPKLLIYDASDLPSGVPSRFKGSGSGKQFTLTISGVQSDDAATYYCQHGAYTSSSDFFYAFGGGTEVVVK
notes: V regions on human Ig constant parts; also called AB134_1
[1]
  Functional assay Cross-linked by F(ab′)2 fragment IL-8: 2.34 abs. corr.
  Functional assay IL-8: 0.115 abs. corr.
[2]
  Cellular binding assay [RFU]: 498 RFU
[3]
  ELISA [abs. corr.]: 2.69 abs. corr.

B14: P018.S.11.A.B06 (antibody, V domains shown)
VH: QSVEESGGRLVTPGTPLTLTCTASGFSLINYNMGWVRQAPGEGLEWIGTILTDGTVYYSNWAKGQFTISKTSTTVDLEMTSPTNEDTATYFCARDYPSYIAFDLWGPGTLVTVSS
VL: AQVLTQTASSVSAAVGGTVTINCQASQSVYNDDNLAWLQQKPGQPPKLLIYGASSLASGVPSRFSGSGSGTEFTLTISGVQSEDAAIYYCQGGGFSSGWYWAFGGGTEVVVK
notes: V regions on human Ig constant parts; also called AB134_27
[1]
  Functional assay Cross-linked by F(ab′)2 fragment IL-8: 2.1 abs. corr.
  Functional assay IL-8: 0.403 abs. corr.
[2]
  Cellular binding assay [RFU]: 441 RFU
[3]
  ELISA [abs. corr.]: 2.13 abs. corr.

B15: P018.S.12.A.A01 (antibody, V domains shown)
VH: QSVEESGGRLVTPGTPLTLTCTVSGFSLSSYAMIWVRQAPGKGLEYIGYISYDGSTYYASWVKGRFTISKTSTTVDLKMTSLTTEDTATYFCARARIDDGYGNLWGQGTLVTVSS
VL: DVVMTQTPASVSEPVGGTVTIKCQASESISNYLAWYQQKPGQPPKLLIYAASYLASGVPSRFRGSGSGTEFTLTISDLESADAATYYCQCTYVASTYVGTFGGGTEVVVK
notes: V regions on human Ig constant parts; also called AB134_50
[1]
  Functional assay Cross-linked by F(ab′)2 fragment IL-8: 2.14 abs. corr.
  Functional assay IL-8: 0.071 abs. corr.
[2]
  Cellular binding assay [RFU]: 600 RFU
[3]
  ELISA [abs. corr.]: 2.41 abs. corr.
